In publication PMC7457226 (Developmental cell, 2019):
Numbering of substitutions follows the chain as printed. In names and notes the source's numbering stands. Blank lines part the entries; values can stand above or below the molecule they belong to.

Key:
WDR44 334-435 (human) = WDR44 334-435 (human) (UniProt Q5JSH3); experiment: ITC
Rab11 (Homo sapiens) = Rab11 (Homo sapiens) (UniProt P62491); details: cited from earlier work
[1] = molecular target: Rab11Q70L 6-186-WDR44 334-435 complex (human) (UniProt P62491); experiment: ITC
SEC = molecular target: the molecule itself; experiment: SEC

Chain of Rab11 (Homo sapiens) (P62491 2-213): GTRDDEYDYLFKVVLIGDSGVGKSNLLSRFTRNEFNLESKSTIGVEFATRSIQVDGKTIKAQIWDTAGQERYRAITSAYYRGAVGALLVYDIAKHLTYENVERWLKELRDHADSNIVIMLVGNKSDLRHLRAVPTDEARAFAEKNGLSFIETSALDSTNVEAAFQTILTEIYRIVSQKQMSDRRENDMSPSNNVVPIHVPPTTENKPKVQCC
Chain of WDR44 334-435 (human) (Q5JSH3 334-435): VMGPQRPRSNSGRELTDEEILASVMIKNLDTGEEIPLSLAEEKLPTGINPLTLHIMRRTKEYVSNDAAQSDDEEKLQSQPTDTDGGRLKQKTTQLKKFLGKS

Kd (WDR44 334-435 (human)): 0.54 µM
Molecule: Rab11Q70L 6-186 (calorimetry) (from UniProt P62491 6-186) (domain or fragment)

Molecule: Rabin8 (from UniProt Q96QF0)
Kd (Rab11 (Homo sapiens)): 40 µM

Kd [1]: 37.2 µM
B1: Rabin8C (residues 270-460) (domain or fragment)
chain: NKSTSSAMSGSHQDLSVIQPIVKDCKEADLSLYNEFRLWKDEPTMDRTCPFLDKIYQEDIFPCLTFSKSELASAVLEAVENNTLSIEPVGLQPIRFVKASAVECGGPKKCALTGQSKSCKHRIKLGDSSNYYYISPFCRYRITSVCNFFTYIRYIQQGLVKQQDVDQMFWEVMQLRKEMSLAKLGYFKEEL

B2: Rabin8 144-C (domain or fragment, human, UniProt Q96QF0-2 144-460, looked up)
chain: RLRSPSVLEVREKGYERLKEELAKAQRELKLKDEECERLSKVRDQLGQELEELTASLFEEAHKMVREANIKQATAEKQLKEAQGKIDVLQAEVAALKTLVLSSSPTSPTQEPLPGGKTPFKKGHTRNKSTSSAMSGSHQDLSVIQPIVKDCKEADLSLYNEFRLWKDEPTMDRTCPFLDKIYQEDIFPCLTFSKSELASAVLEAVENNTLSIEPVGLQPIRFVKASAVECGGPKKCALTGQSKSCKHRIKLGDSSNYYYISPFCRYRITSVCNFFTYIRYIQQGLVKQQDVDQMFWEVMQLRKEMSLAKLGYFKEEL
binding result (SEC): binds

B3: Rabin8 144-C S147A/S149A (domain or fragment, human, UniProt Q96QF0-2 144-460, looked up)
chain: B2 chain with S4A, S6A
binding result (SEC): binds

B4: Rabin8 144-C S147D/S149D (domain or fragment, human, UniProt Q96QF0-2 144-460, looked up)
chain: B2 chain with S4D, S6D
binding result (SEC): binds
